Data reported in patent US20240402174A1 (Takeda / Millennium, published 2024).

Legend:
Test in all cases: multiplex microsphere immunoassay
GI.2 VLP = biological target: T1, GI.2 VLP (norovirus Hu/GI.2/Jingzhou/2013401/CHN, UniProt Q04542 1-546)
T1 construct: also called GI.2 Jingzhou
T1 chain: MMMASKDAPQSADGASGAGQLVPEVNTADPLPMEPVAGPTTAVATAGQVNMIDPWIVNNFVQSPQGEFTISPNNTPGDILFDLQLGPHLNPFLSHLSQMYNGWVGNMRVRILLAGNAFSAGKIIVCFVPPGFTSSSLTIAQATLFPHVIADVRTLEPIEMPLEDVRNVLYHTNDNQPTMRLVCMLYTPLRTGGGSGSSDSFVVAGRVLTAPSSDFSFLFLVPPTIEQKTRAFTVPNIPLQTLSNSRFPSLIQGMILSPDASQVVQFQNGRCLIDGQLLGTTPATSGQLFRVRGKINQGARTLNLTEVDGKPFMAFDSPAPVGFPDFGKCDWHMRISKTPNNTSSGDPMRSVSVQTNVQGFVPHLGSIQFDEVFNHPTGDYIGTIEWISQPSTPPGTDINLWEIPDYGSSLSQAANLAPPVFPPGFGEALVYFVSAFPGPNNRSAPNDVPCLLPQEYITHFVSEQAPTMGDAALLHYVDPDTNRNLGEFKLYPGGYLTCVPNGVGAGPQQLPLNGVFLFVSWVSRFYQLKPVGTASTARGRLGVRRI

GI.7 VLP = biological target: T2, GI.7 VLP (norovirus Hu/GI.7/Providence191/2010/USA)
T2 construct: also called GI.7 Providence
T2 chain: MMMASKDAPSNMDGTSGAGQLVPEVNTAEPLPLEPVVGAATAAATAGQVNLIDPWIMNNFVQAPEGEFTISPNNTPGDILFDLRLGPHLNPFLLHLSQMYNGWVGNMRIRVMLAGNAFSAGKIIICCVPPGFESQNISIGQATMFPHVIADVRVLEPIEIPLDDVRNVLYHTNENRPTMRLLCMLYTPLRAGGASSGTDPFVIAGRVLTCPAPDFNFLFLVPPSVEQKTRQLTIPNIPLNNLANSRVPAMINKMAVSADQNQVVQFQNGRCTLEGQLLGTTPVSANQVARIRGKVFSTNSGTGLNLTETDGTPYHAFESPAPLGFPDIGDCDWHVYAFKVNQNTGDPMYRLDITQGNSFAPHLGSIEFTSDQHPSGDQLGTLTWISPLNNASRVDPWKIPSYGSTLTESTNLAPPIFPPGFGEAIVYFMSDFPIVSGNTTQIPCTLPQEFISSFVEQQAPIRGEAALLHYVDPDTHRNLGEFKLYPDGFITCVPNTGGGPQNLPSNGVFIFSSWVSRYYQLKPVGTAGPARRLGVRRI

GI.3 VLP = biological target: T3, GI.3 VLP (norovirus Hu/GI.3/JKPG_883/SWE/2007)
T3 construct: also called GI.3 Sweden
T3 chain: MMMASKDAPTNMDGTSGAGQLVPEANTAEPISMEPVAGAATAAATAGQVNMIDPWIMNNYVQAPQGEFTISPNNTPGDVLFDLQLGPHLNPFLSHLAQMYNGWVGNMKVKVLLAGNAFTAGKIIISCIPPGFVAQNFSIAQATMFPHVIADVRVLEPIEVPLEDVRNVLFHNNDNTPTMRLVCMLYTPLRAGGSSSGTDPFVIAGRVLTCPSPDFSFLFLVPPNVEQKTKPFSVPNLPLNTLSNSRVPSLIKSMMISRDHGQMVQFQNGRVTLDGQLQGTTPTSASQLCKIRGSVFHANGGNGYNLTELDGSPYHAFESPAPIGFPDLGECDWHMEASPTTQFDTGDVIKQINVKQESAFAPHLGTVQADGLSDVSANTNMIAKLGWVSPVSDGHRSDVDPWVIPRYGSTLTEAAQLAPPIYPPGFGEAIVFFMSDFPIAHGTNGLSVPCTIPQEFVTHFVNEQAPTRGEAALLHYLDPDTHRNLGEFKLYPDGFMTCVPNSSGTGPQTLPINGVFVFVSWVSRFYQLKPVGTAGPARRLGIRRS

GI.5 VLP = biological target: T4, GI.5 VLP (norovirus …)
T4 construct: also called GI.5 Siklos
T4 chain: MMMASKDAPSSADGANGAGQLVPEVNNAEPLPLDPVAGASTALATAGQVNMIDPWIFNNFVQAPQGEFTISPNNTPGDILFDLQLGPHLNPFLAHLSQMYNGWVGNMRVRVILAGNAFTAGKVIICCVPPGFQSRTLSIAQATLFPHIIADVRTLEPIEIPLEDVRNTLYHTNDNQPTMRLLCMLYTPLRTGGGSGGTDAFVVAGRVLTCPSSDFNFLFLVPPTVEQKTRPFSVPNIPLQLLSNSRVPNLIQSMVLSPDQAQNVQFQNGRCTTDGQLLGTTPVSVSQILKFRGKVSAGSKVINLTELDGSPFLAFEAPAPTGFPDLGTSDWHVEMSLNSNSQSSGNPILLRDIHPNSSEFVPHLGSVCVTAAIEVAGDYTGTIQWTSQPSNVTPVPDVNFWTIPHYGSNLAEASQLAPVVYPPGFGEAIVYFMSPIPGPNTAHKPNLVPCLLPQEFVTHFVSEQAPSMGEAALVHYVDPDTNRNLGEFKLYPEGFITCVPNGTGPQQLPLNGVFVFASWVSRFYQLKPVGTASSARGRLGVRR

GI.6 VLP = biological target: T5, GI.6 VLP (norovirus Hu/GI.6/TCH-099/USA/2003)
T5 construct: also called GI.6 USA
T5 chain: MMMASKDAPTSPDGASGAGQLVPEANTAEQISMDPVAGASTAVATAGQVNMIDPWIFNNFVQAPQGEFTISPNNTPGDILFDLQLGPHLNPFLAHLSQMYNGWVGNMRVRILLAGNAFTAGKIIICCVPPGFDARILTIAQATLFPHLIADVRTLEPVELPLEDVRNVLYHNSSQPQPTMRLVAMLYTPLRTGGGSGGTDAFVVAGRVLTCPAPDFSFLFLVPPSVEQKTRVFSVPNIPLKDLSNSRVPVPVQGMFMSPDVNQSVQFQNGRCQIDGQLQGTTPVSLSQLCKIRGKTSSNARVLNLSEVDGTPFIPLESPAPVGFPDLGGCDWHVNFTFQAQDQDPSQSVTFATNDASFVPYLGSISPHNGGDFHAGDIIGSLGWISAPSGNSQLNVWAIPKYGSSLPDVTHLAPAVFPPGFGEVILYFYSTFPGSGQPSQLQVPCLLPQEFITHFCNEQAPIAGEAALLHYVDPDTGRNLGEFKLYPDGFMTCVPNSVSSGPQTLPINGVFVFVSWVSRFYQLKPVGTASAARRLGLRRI

GI.4 VLP = biological target: T6, GI.4 VLP (norovirus Hu/GI.4/1643/2008/US)
T6 construct: also called GI.4 US
T6 chain: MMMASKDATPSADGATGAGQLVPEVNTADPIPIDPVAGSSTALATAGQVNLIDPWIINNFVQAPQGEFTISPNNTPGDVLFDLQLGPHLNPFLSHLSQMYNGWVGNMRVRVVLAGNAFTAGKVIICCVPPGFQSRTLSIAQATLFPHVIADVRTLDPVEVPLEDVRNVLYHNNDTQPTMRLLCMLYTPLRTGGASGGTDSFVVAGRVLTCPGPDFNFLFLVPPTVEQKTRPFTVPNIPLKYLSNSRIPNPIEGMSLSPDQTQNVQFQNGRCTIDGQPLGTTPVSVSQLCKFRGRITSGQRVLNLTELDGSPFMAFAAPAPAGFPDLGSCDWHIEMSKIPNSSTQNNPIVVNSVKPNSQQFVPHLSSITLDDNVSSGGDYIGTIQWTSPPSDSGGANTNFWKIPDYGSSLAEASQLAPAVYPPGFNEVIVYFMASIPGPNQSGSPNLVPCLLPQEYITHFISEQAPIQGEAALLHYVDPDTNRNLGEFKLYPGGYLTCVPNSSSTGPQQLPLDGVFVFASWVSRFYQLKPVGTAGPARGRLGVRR

B1: human mAb 1227 (antibody, V domains shown)
VH: QVQLVQSGGGMVQPGGSLSLSCAASGFTLSNYAMTWVRQAPGKGLEWVSSIGGSGGTTYYADSVKGRFTISRDSSMNTLYLQMSNLRAGDTAVYYCAKDKTRTLRLGYSGMDVWGQGTTVTVSS
VL: DIRLTQSPSSLSASVGDRVTITCRASQSISSYLNWYQQKPGKAPDLLIYGASSLQSGVPSRFSGSGSGTDFTLTISSLQPEDFGNYYCQQSFSTPRTFGQGTKVEL
notes: also called A1227
- EC50 (GI.2 VLP): 2 ng/mL
- EC50 (GI.7 VLP): 21 ng/mL
- EC50 (GI.3 VLP): 2 ng/mL
- EC50 (GI.5 VLP): 1 ng/mL
- EC50 (GI.6 VLP): 2 ng/mL
- EC50 (GI.4 VLP): 2 ng/mL
